Measurements taken from the supplement of paper PMC7125110.
± gives the standard error. Fewer inactive variants are shown than the library holds.

B1: glmS ribozyme (parent)
chain: AUAAAAGCGCCAGAACUACAGAAAUGUAGUUGACGAGGAGGAGGUUUAUCGAAUUUUCGGCGGAUGCCUCCAAA

Columns and labels:
Conditions in all cases: with glucosamine-6-phosphate
glucosamine-6-phosphate [1] = variants of: B1; experiment: self-cleavage kobs at 40 uM GlcN6P; higher = faster cleavage; RNA array
Method in brief: (§1)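 Weighted Michaelis–Menten fits across concentrations supplied kcat and KM, based on kobs from one- or two-exponential decay fits to normalised per-tile medians. The data came from barcoded ribozyme variants transcribed in situ by E. coli RNA polymerase on sequenced MiSeq chips and tracked at 37 °C by a hybridised Cy3 probe. Glucosamine-6-phosphate (40 μM to 10 mM) in HEPES/KCl/Mg(OAc)2 buffer was flowed in.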

glucosamine-6-phosphate [2] = variants of: B1; experiment: self-cleavage kobs at 160 uM GlcN6P; higher = faster cleavage; RNA array
Method in brief: as §1

glucosamine-6-phosphate [3] = variants of: B1; experiment: self-cleavage kobs at 640 uM GlcN6P; higher = faster cleavage; RNA array
Method in brief: as §1

glucosamine-6-phosphate [4] = variants of: B1; experiment: self-cleavage kobs at 10000 uM GlcN6P; higher = faster cleavage; RNA array
Method in brief: as §1

glucosamine-6-phosphate [5] = variants of: B1; experiment: self-cleavage kobs at 2500 uM GlcN6P; higher = faster cleavage; RNA array
Method in brief: as §1

AUAAAAGCGCCAGAACUACAGAAAUGUAGUUGACGAGGAGGAGGUUUAUCGUAUUUUCGGCGCAUGCCUCCAAA [A52U G63C]
self-cleavage kobs at 40 uM GlcN6P (glucosamine-6-phosphate [1]): < 1e-05 s⁻¹ | self-cleavage kobs at 160 uM GlcN6P (glucosamine-6-phosphate [2]): < 1e-05 s⁻¹ | self-cleavage kobs at 640 uM GlcN6P (glucosamine-6-phosphate [3]): < 1e-05 s⁻¹ | self-cleavage kobs at 10000 uM GlcN6P (glucosamine-6-phosphate [4]): < 1e-05 s⁻¹

AUAAAAGCGCCAGAACUACAGAAAUGUAGUUGACGAGGAGGAGGUUUAUCGUAUUUUCGGCGGGUGCCACCAAA [A52U A64G U69A]
self-cleavage kobs at 40 uM GlcN6P (glucosamine-6-phosphate [1]): < 1e-05 s⁻¹

AUAAAAGCGCCAGAACUACAGAAAUGUAGUUGACGAGGAGGAGGUUUAUCUAAUUUUCGGCGUCUGCCUCCAAA [G51U G63U A64C]
self-cleavage kobs at 40 uM GlcN6P (glucosamine-6-phosphate [1]): < 1e-05 s⁻¹ | self-cleavage kobs at 2500 uM GlcN6P (glucosamine-6-phosphate [5]): < 1e-05 s⁻¹

AUAAAAGCGCCAGAACUACAGAAAUGUAGUUGACGAGGAGGAGGUUUAUCGAGCUUUCGGCGGAUGCCUCCAAA [A53G U54C]
self-cleavage kobs at 40 uM GlcN6P (glucosamine-6-phosphate [1]): 0.000508 ± 7.8e-05 s⁻¹ | self-cleavage kobs at 160 uM GlcN6P (glucosamine-6-phosphate [2]): 0.000991 ± 0.00024 s⁻¹ | self-cleavage kobs at 10000 uM GlcN6P (glucosamine-6-phosphate [4]): 0.0169 ± 0.0033 s⁻¹

AUAAAAGCGCCAGAACUACAGAAAUGUAGUUGACGAGGAGGAGGUUUAUCGAGUUUUCGGCGGAUGCCACCAAA [A53G U69A]
self-cleavage kobs at 40 uM GlcN6P (glucosamine-6-phosphate [1]): 0.000147 ± 4e-05 s⁻¹ | self-cleavage kobs at 640 uM GlcN6P (glucosamine-6-phosphate [3]): 0.000407 ± 0.0001 s⁻¹ | self-cleavage kobs at 2500 uM GlcN6P (glucosamine-6-phosphate [5]): 0.000305 ± 8.4e-05 s⁻¹ | self-cleavage kobs at 10000 uM GlcN6P (glucosamine-6-phosphate [4]): 8.92e-05 ± 2.1e-05 s⁻¹

AUAAAAGCGCCAGAACUACAGAAAUGUAGUUGACGAGGAGGAGGUUUAUCGAGUUUUCGGCGGAUUACUCCAAA [A53G G66U C67A]
self-cleavage kobs at 40 uM GlcN6P (glucosamine-6-phosphate [1]): 7.95e-05 ± 1.9e-05 s⁻¹ | self-cleavage kobs at 10000 uM GlcN6P (glucosamine-6-phosphate [4]): 0.00186 ± 0.00059 s⁻¹

AUAAAAGCGCCAGAACUACAGAAAUGUAGUUGACGAGGAGGAGGUUUAUCGAGUUUUCGGGGGAUGCCUUCAAA [A53G C61G C70U]
self-cleavage kobs at 40 uM GlcN6P (glucosamine-6-phosphate [1]): < 1e-05 s⁻¹ | self-cleavage kobs at 10000 uM GlcN6P (glucosamine-6-phosphate [4]): < 1e-05 s⁻¹

AUAAAAGCGCCAGAACUACAGAAAUGUAGUUGACGAGGAGGAGGUUUAUCGAUUUUUCGGCGGAUGCCUUCAAA [A53U C70U]
self-cleavage kobs at 40 uM GlcN6P (glucosamine-6-phosphate [1]): 0.000741 ± 6.7e-05 s⁻¹ | self-cleavage kobs at 160 uM GlcN6P (glucosamine-6-phosphate [2]): 0.00102 ± 0.00023 s⁻¹ | self-cleavage kobs at 640 uM GlcN6P (glucosamine-6-phosphate [3]): 0.00682 ± 0.0013 s⁻¹ | self-cleavage kobs at 2500 uM GlcN6P (glucosamine-6-phosphate [5]): 0.00471 ± 0.0013 s⁻¹ | self-cleavage kobs at 10000 uM GlcN6P (glucosamine-6-phosphate [4]): 0.0335 ± 0.0084 s⁻¹

AUAAAAGCGCCAGAACUACAGAAAUGUAGUUGACGAGGAGGAGGUUUAUCGACUUUUCGGCGGAUGCAUCCAAA [A53C C68A]
self-cleavage kobs at 40 uM GlcN6P (glucosamine-6-phosphate [1]): < 1e-05 s⁻¹ | self-cleavage kobs at 160 uM GlcN6P (glucosamine-6-phosphate [2]): < 1e-05 s⁻¹ | self-cleavage kobs at 640 uM GlcN6P (glucosamine-6-phosphate [3]): < 1e-05 s⁻¹

AUAAAAGCGCCAGAACUACAGAAAUGUAGUUGACGAGGAGGAGGUUUAUCGACUUCUCGGCGGAUGCCUCCAAA [A53C U56C]
self-cleavage kobs at 40 uM GlcN6P (glucosamine-6-phosphate [1]): < 1e-05 s⁻¹ | self-cleavage kobs at 2500 uM GlcN6P (glucosamine-6-phosphate [5]): 0.000121 ± 2e-05 s⁻¹

AUAAAAGCGCCAGAACUACAGAAAUGUAGUUGACGAGGAGGAGGUUUAUCGAGUUUUCGCCGGAUGCCUCCAAA [A53G G60C]
self-cleavage kobs at 40 uM GlcN6P (glucosamine-6-phosphate [1]): < 1e-05 s⁻¹ | self-cleavage kobs at 10000 uM GlcN6P (glucosamine-6-phosphate [4]): < 1e-05 s⁻¹

AUAAAAGCGCCAGAACUACAGAAAUGUAGUUGACGAGGAGGAGGUUUAUCGUAUUUUCGGAGGAUGCCUCCAAA [A52U C61A]
self-cleavage kobs at 40 uM GlcN6P (glucosamine-6-phosphate [1]): < 1e-05 s⁻¹ | self-cleavage kobs at 10000 uM GlcN6P (glucosamine-6-phosphate [4]): < 1e-05 s⁻¹

AUAAAAGCGCCAGAACUACAGAAAUGUAGUUGACGAGGAGGAGGUUUAUCGUAUUUUCGACGGAUGCCUCCAAA [A52U G60A]
self-cleavage kobs at 40 uM GlcN6P (glucosamine-6-phosphate [1]): < 1e-05 s⁻¹ | self-cleavage kobs at 160 uM GlcN6P (glucosamine-6-phosphate [2]): < 1e-05 s⁻¹ | self-cleavage kobs at 640 uM GlcN6P (glucosamine-6-phosphate [3]): < 1e-05 s⁻¹ | self-cleavage kobs at 10000 uM GlcN6P (glucosamine-6-phosphate [4]): < 1e-05 s⁻¹

AUAAAAGCGCCAGAACUACAGAAAUGUAGUUGACGAGGAGGAGGUUUAUCGAGUUUUCGGGGGAUGCCUCCAAA [A53G C61G]
self-cleavage kobs at 40 uM GlcN6P (glucosamine-6-phosphate [1]): < 1e-05 s⁻¹

AUAAAAGCGCCAGAACUACAGAAAUGUAGUUGACGAGGAGGAGGUUUAUCGGAUUUUCGGCGCAUGCCUCCAAA [A52G G63C]
self-cleavage kobs at 40 uM GlcN6P (glucosamine-6-phosphate [1]): < 1e-05 s⁻¹

AUAAAAGCGCCAGAACUACAGAAAUGUAGUUGACGAGGAGGAGGUUUAUCGCAUUUUCGGCCGAUGCCUCCAAA [A52C G62C]
self-cleavage kobs at 40 uM GlcN6P (glucosamine-6-phosphate [1]): < 1e-05 s⁻¹ | self-cleavage kobs at 160 uM GlcN6P (glucosamine-6-phosphate [2]): < 1e-05 s⁻¹ | self-cleavage kobs at 640 uM GlcN6P (glucosamine-6-phosphate [3]): < 1e-05 s⁻¹ | self-cleavage kobs at 2500 uM GlcN6P (glucosamine-6-phosphate [5]): < 1e-05 s⁻¹ | self-cleavage kobs at 10000 uM GlcN6P (glucosamine-6-phosphate [4]): < 1e-05 s⁻¹

AUAAAAGCGCCAGAACUACAGAAAUGUAGUUGACGAGGAGGAGGUUUAUCGCAUUUUCGUCGGAUGCCCCCAAA [A52C G60U U69C]
self-cleavage kobs at 40 uM GlcN6P (glucosamine-6-phosphate [1]): < 1e-05 s⁻¹

AUAAAAGCGCCAGAACUACAGAAAUGUAGUUGACGAGGAGGAGGUUUAUCGGAUUUUCGACGGAGGCCUCUAAA [A52G G60A U65G C71U]
self-cleavage kobs at 40 uM GlcN6P (glucosamine-6-phosphate [1]): < 1e-05 s⁻¹

AUAAAAGCGCCAGAACUACAGAAAUGUAGUUGACGAGGAGGAGGUUUAUCGUAUUUUCAGCGGAUGCCUCCAAA [A52U G59A]
self-cleavage kobs at 40 uM GlcN6P (glucosamine-6-phosphate [1]): < 1e-05 s⁻¹ | self-cleavage kobs at 160 uM GlcN6P (glucosamine-6-phosphate [2]): < 1e-05 s⁻¹ | self-cleavage kobs at 640 uM GlcN6P (glucosamine-6-phosphate [3]): < 1e-05 s⁻¹ | self-cleavage kobs at 2500 uM GlcN6P (glucosamine-6-phosphate [5]): < 1e-05 s⁻¹ | self-cleavage kobs at 10000 uM GlcN6P (glucosamine-6-phosphate [4]): < 1e-05 s⁻¹

AUAAAAGCGCCAGAACUACAGAAAUGUAGUUGACGAGGAGGAGGUUUAUCGUGUUUUCGGUGGAUGCCUCCAAA [A52U A53G C61U]
self-cleavage kobs at 40 uM GlcN6P (glucosamine-6-phosphate [1]): < 1e-05 s⁻¹

AUAAAAGCGCCAGAACUACAGAAAUGUAGUUGACGAGGAGGAGGUUUAUCGAGUUUUCGGCGGAUGCCUCGAAA [A53G C71G]
self-cleavage kobs at 40 uM GlcN6P (glucosamine-6-phosphate [1]): 0.000153 ± 2e-05 s⁻¹ | self-cleavage kobs at 640 uM GlcN6P (glucosamine-6-phosphate [3]): 0.000377 ± 5.8e-05 s⁻¹ | self-cleavage kobs at 2500 uM GlcN6P (glucosamine-6-phosphate [5]): 0.00062 ± 0.00013 s⁻¹

AUAAAAGCGCCAGAACUACAGAAAUGUAGUUGACGAGGAGGAGGUUUAUCGCAUUAUCGGCGGAUGCCUCCAAA [A52C U56A]
self-cleavage kobs at 40 uM GlcN6P (glucosamine-6-phosphate [1]): < 1e-05 s⁻¹ | self-cleavage kobs at 640 uM GlcN6P (glucosamine-6-phosphate [3]): < 1e-05 s⁻¹

AUAAAAGCGCCAGAACUACAGAAAUGUAGUUGACGAGGAGGAGGUUUAUCGGCAUUUCGGCGGAUGCCUCCAAA [A52G A53C U54A]
self-cleavage kobs at 40 uM GlcN6P (glucosamine-6-phosphate [1]): < 1e-05 s⁻¹

AUAAAAGCGCCAGAACUACAGAAAUGUAGUUGACGAGGAGGAGGUUUAUCGUAUUUUCGGCAGAUGCCUCCAAA [A52U G62A]
self-cleavage kobs at 40 uM GlcN6P (glucosamine-6-phosphate [1]): < 1e-05 s⁻¹ | self-cleavage kobs at 640 uM GlcN6P (glucosamine-6-phosphate [3]): < 1e-05 s⁻¹ | self-cleavage kobs at 2500 uM GlcN6P (glucosamine-6-phosphate [5]): < 1e-05 s⁻¹ | self-cleavage kobs at 10000 uM GlcN6P (glucosamine-6-phosphate [4]): < 1e-05 s⁻¹

AUAAAAGCGCCAGAACUACAGAAAUGUAGUUGACGAGGAGGAGGUUUAUCGGCUUUUCGGCGGAUGCCUCCAAA [A52G A53C]
self-cleavage kobs at 40 uM GlcN6P (glucosamine-6-phosphate [1]): < 1e-05 s⁻¹

AUAAAAGCGCCAGAACUACAGAAAUGUAGUUGACGAGGAGGAGGUUUAUCGAGUUUUCGGCGGAUGCUUCCAAA [A53G C68U]
self-cleavage kobs at 40 uM GlcN6P (glucosamine-6-phosphate [1]): 0.000296 ± 4.8e-05 s⁻¹ | self-cleavage kobs at 160 uM GlcN6P (glucosamine-6-phosphate [2]): 0.00034 ± 7.7e-05 s⁻¹ | self-cleavage kobs at 640 uM GlcN6P (glucosamine-6-phosphate [3]): 0.00399 ± 0.00064 s⁻¹ | self-cleavage kobs at 2500 uM GlcN6P (glucosamine-6-phosphate [5]): 0.00239 ± 0.00052 s⁻¹ | self-cleavage kobs at 10000 uM GlcN6P (glucosamine-6-phosphate [4]): 0.00554 ± 0.0012 s⁻¹

AUAAAAGCGCCAGAACUACAGAAAUGUAGUUGACGAGGAGGAGGUUUAUCGCAUUUUCGUCGGAUGCCUCCAAA [A52C G60U]
self-cleavage kobs at 40 uM GlcN6P (glucosamine-6-phosphate [1]): < 1e-05 s⁻¹ | self-cleavage kobs at 10000 uM GlcN6P (glucosamine-6-phosphate [4]): < 1e-05 s⁻¹

AUAAAAGCGCCAGAACUACAGAAAUGUAGUUGACGAGGAGGAGGUUUAUCCAAUGUUCGGCGGAUGCCUCCAAA [G51C U55G]
self-cleavage kobs at 40 uM GlcN6P (glucosamine-6-phosphate [1]): < 1e-05 s⁻¹ | self-cleavage kobs at 160 uM GlcN6P (glucosamine-6-phosphate [2]): < 1e-05 s⁻¹ | self-cleavage kobs at 640 uM GlcN6P (glucosamine-6-phosphate [3]): < 1e-05 s⁻¹ | self-cleavage kobs at 2500 uM GlcN6P (glucosamine-6-phosphate [5]): < 1e-05 s⁻¹ | self-cleavage kobs at 10000 uM GlcN6P (glucosamine-6-phosphate [4]): < 1e-05 s⁻¹
